Source: patent US10738094B2, “Peptides and combination of peptides for use in immunotherapy against ovarian cancer and other cancers” (immatics biotechnologies GmbH, priority 2015, dated 2020)

Target: HLA-A*02:01 (Homo sapiens, UniProt P04439, D140Y/D185E/D98H/E176V/E277Q/G131W/G231S/I119V/I121R/I166T/I218V/L300P/L318F/N151K/N90K/P208A/P217A/Q86G/Q94H/R138H/R169H/T345S)
Experiment: MHC binding assay (UV-ligand exchange, beta2m ELISA)
Details: binding to HLA-A*02:01 ranged by peptide exchange yield (UV-ligand exchange, β2m ELISA)
Description: Candidate peptides for T cell based therapies according to the present invention were further tested for their MHC binding capacity (affinity). The individual peptide-MHC complexes were produced by UV-ligand exchange, where a UV-sensitive peptide is cleaved upon UV-irradiation, and exchanged with the peptide of interest as analyzed. Only peptide candidates that can effectively bind and stabilize the peptide-receptive MHC molecules prevent dissociation of the MHC complexes. To determine the yield of the exchange reaction, an ELISA was performed based on the detection of the light chain (β2m) of stabilized MHC complexes. The assay was performed as generally described in Rodenko et al. (Rodenko et al., 2006).
96 well MAXISorp plates (NUNC) were coated over night with 2 ug/ml streptavidin in PBS at room temperature, washed 4× and blocked for 1 h at 37° C. in 2% BSA containing blocking buffer. […] Peptide-MHC monomers of the UV-exchange reaction were diluted 100 fold in blocking buffer. Samples were incubated for 1 h at 37° C., washed four times, incubated with 2 ug/ml HRP conjugated anti-β2m for 1 h at 37° C., washed again and detected with TMB solution that is stopped with […]. Absorption was measured at 450 nm. Candidate peptides that show a high exchange yield (preferably higher than 50%, most preferred higher than 75%) are generally preferred for a generation and production of antibodies or fragments thereof, and/or T cell receptors or fragments thereof, as they show sufficient avidity to the MHC molecules and prevent dissociation of the MHC complexes.

Peptide exchange	Substance
“+++” (≥50 = +++)	609 (ALWKQLLEL; listed as Homo sapiens) [compound 609]
“+++” (≥50 = +++)	257 (SIFSAFLSV; listed as Homo sapiens) [compound 257]
“++” (≥20% = ++)	453 (KLLEATSAV; listed as Homo sapiens) [compound 453]
“++” (≥20% = ++)	522 (TLWYRSPEV; listed as Homo sapiens) [compound 522]
“+++” (≥50 = +++)	537 (TLAPGEVLRSV; listed as Homo sapiens) [compound 537]
“+++” (≥50 = +++)	586 (KLKPGDLVGV; listed as Homo sapiens) [compound 586]
“+++” (≥50 = +++)	190 (FLSSLTETI; listed as Homo sapiens) [compound 190]
“++++” (≥75% = ++++)	159 (GLVGNPLPSV; listed as Homo sapiens) [compound 159]
“+++” (≥50 = +++)	484 (SLIEKVTQL; listed as Homo sapiens) [compound 484]
“++” (≥20% = ++)	590 (SLIEKLWQT; listed as Homo sapiens) [compound 590]
“++” (≥20% = ++)	400 (SLLTEQDLWTV; listed as Homo sapiens) [compound 400]
“++++” (≥75% = ++++)	61 (FLQGYQLHL; listed as Homo sapiens) [compound 61]
“+++” (≥50 = +++)	509 (FLFDTKPLIV; listed as Homo sapiens) [compound 509]
“+++” (≥50 = +++)	263 (LLVSNLDFGV; listed as Homo sapiens) [compound 263]
“+++” (≥50 = +++)	486 (AVMESIQGV; listed as Homo sapiens) [compound 486]
“+++” (≥50 = +++)	182 (MLLEAPGIFL; listed as Homo sapiens) [compound 182]
“++” (≥20% = ++)	21 (VLDELDMEL; listed as Homo sapiens) [compound 21]
“+++” (≥50 = +++)	500 (SLMEDQVLQL; listed as Homo sapiens) [compound 500]
“++” (≥20% = ++)	242 (AIAYILQGV; listed as Homo sapiens) [compound 242]
“+++” (≥50 = +++)	42 (VLLQKIVSA; listed as Homo sapiens) [compound 42]
“+++” (≥50 = +++)	95 (SVIPQIQKV; listed as Homo sapiens) [compound 95]
“++” (≥20% = ++)	233 (VLSETLYEL; listed as Homo sapiens) [compound 233]
“+++” (≥50 = +++)	546 (VMIAGKVAVV; listed as Homo sapiens) [compound 546]
“+++” (≥50 = +++)	334 (TLTKVLVAL; listed as Homo sapiens) [compound 334]

Peptide exchange	Substance
“++” (≥20% = ++)	409 (LLDAMNYHL; listed as Homo sapiens) [compound 409]
“+++” (≥50 = +++)	195 (GLFADLLPRL; listed as Homo sapiens) [compound 195]
“+++” (≥50 = +++)	39 (SVAPNLPAV; listed as Homo sapiens) [compound 39]
“++++” (≥75% = ++++)	348 (ILLDVKTRL; listed as Homo sapiens) [compound 348]
“+++” (≥50 = +++)	161 (ALLEGVNTV; listed as Homo sapiens) [compound 161]
“+++” (≥50 = +++)	85 (KMSELRVTL; listed as Homo sapiens) [compound 85]
“+++” (≥50 = +++)	326 (FLPEALDFV; listed as Homo sapiens) [compound 326]
“+++” (≥50 = +++)	267 (ALQDFLLSV; listed as Homo sapiens) [compound 267]
“+++” (≥50 = +++)	475 (LLLNEEALAQI; listed as Homo sapiens) [compound 475]
“+++” (≥50 = +++)	107 (FLQPVDDTQHL; listed as Homo sapiens) [compound 107]
“++” (≥20% = ++)	232 (ALLEAQDVELYL; listed as Homo sapiens) [compound 232]
“++” (≥20% = ++)	146 (SLATAGDGLIEL; listed as Homo sapiens) [compound 146]
“+++” (≥50 = +++)	170 (RLQETLSAA; listed as Homo sapiens) [compound 170]
“+++” (≥50 = +++)	462 (KLAKQPETV; listed as Homo sapiens) [compound 462]
“+++” (≥50 = +++)	327 (GLAPFTEGISFV; listed as Homo sapiens) [compound 327]
“++” (≥20% = ++)	114 (SLVGEPILQNV; listed as Homo sapiens) [compound 114]
“++” (≥20% = ++)	185 (FLIDDKGYTL; listed as Homo sapiens) [compound 185]
“++” (≥20% = ++)	615 (VLPPDTDPA; listed as Homo sapiens) [compound 615]
“++++” (≥75% = ++++)	68 (SLMELPRGLFL; listed as Homo sapiens) [compound 68]
“++” (≥20% = ++)	270 (LLLDEEGTFSL; listed as Homo sapiens) [compound 270]
“+++” (≥50 = +++)	468 (YLRSVGDGETV; listed as Homo sapiens) [compound 468]
“+++” (≥50 = +++)	623 (YLVEDIQHI; listed as Homo sapiens) [compound 623]
“++” (≥20% = ++)	432 (TLIEESAKV; listed as Homo sapiens) [compound 432]
“++++” (≥75% = ++++)	620 (KLLNKIYEA; listed as Homo sapiens) [compound 620]

Peptide exchange	Substance
“++” (≥20% = ++)	94 (YLIDIKTIAI; listed as Homo sapiens) [compound 94]
“+++” (≥50 = +++)	529 (LLADELITV; listed as Homo sapiens) [compound 529]
“+++” (≥50 = +++)	206 (VLQEGKLQKLAQL; listed as Homo sapiens) [compound 206]
“+++” (≥50 = +++)	436 (HLAEVSAEV; listed as Homo sapiens) [compound 436]
“++++” (≥75% = ++++)	321 (GLFEDVTQPGILL; listed as Homo sapiens) [compound 321]
“++++” (≥75% = ++++)	52 (FLLAHGLGFLL; listed as Homo sapiens) [compound 52]
“+++” (≥50 = +++)	280 (VLPDPEVLEAV; listed as Homo sapiens) [compound 280]
“+++” (≥50 = +++)	479 (SLFGNSGILENV; listed as Homo sapiens) [compound 479]
“+++” (≥50 = +++)	245 (SMIDDLLGV; listed as Homo sapiens) [compound 245]
“+++” (≥50 = +++)	174 (ALAQYLITA; listed as Homo sapiens) [compound 174]
“+++” (≥50 = +++)	469 (YLASDEITTV; listed as Homo sapiens) [compound 469]
“+++” (≥50 = +++)	356 (KLLGKLPEL; listed as Homo sapiens) [compound 356]
“+++” (≥50 = +++)	541 (SMLEPVPEL; listed as Homo sapiens) [compound 541]
“+++” (≥50 = +++)	554 (LLMPSSEDLLL; listed as Homo sapiens) [compound 554]
“+++” (≥50 = +++)	485 (NVPDSFNEV; listed as Homo sapiens) [compound 485]
“+++” (≥50 = +++)	478 (YLLHEKLNL; listed as Homo sapiens) [compound 478]
“+++” (≥50 = +++)	75 (GLLEVMVNL; listed as Homo sapiens) [compound 75]
“+++” (≥50 = +++)	248 (FLFPNQYVDV; listed as Homo sapiens) [compound 248]
“+++” (≥50 = +++)	151 (KILQQLVTL; listed as Homo sapiens) [compound 151]
“++” (≥20% = ++)	570 (ALANQIPTV; listed as Homo sapiens) [compound 570]
“++++” (≥75% = ++++)	611 (YLLDDGTLVV; listed as Homo sapiens) [compound 611]
“+++” (≥50 = +++)	365 (YVIDQGETDVYV; listed as Homo sapiens) [compound 365]
“+++” (≥50 = +++)	111 (YVWGFYPAEV; listed as Homo sapiens) [compound 111]
“+++” (≥50 = +++)	152 (ILFEDIFDV; listed as Homo sapiens) [compound 152]
